Data from patent publication EP1053001B1.
Non-standard residues stand in square brackets, D forms with d. No end group written: not given here. *: point of attachment. Aib = CC(C)(N)C(=O)O; For = O=C*

Target: T1, calcitonin receptors (human T47D / MCF7 breast carcinoma cells) (human), P30988
T1 chain: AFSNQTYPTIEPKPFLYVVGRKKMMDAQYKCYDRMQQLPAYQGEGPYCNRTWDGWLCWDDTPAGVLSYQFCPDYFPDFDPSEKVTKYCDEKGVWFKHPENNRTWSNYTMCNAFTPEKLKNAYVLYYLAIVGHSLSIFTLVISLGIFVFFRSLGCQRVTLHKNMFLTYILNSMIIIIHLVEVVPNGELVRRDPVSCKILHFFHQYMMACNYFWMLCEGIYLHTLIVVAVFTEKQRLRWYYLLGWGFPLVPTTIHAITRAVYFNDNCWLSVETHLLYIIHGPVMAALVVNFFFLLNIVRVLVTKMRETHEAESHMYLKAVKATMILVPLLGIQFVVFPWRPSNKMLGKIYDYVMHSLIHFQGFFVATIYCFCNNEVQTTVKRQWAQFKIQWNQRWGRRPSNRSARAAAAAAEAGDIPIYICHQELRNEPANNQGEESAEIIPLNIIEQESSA
Assay: radioligand competition vs 125I-salmon calcitonin, human T47D cell membranes

VL[Aib]K(For)LSQEL[Aib]K(For)LQTYPRTNTGSNTY-NH2 [Compound 8] showed an IC50 of 93 nM.
